Test results from patent US7138254.

Tested on: cytochrome C

Chain of trypsin (P00760 24-246): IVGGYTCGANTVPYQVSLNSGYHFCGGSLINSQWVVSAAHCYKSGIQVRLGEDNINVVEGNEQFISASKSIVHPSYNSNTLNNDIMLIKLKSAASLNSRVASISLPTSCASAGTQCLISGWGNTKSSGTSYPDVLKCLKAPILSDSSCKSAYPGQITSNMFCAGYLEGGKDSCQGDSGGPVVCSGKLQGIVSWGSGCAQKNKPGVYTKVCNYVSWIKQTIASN
Chain of biotin conjugated trypsin (P00760 24-246): as above

Substance	peptide maps (capillary electrophoresis of FITC labeled digest), three runs over two weeks	peptide profiles of digested cytochrome C (capillary electrophoresis of FITC labeled digest)
biotin conjugated trypsin	all capillaries of the treated cassettes have the same peptide maps in the three runs	the peptide profiles of digested cytochrome C obtained from this approach and the approach described in Example 26 are consistent and reproducible
trypsin	the control capillary cassette showed some protein digestion only in the first run, but no protein digestion in the second or the third run	The obtained peptide profiles of digested cytochrome C are consistent and reproducible between each run and comparable to data obtained with full volume reactions
